Laboratory results as given in the supplement of paper PMC7877785.
± gives the uncertainty stated by the source.

Test: self-splicing fitness, log relative to wild type (ln ratio); higher = more splicing; Tetrahymena group I intron in knt gene, E. coli kanamycin selection, DiMSum; sequences stand for … in CUCUCU…GGAGGGAAAAGUUAUCAGGCAUGCACCUGGUAGCUAGUCUUUAAACCAAUAGAUUGCAUCGGUUUAAAAGGCAAGACCGUCAAAUUGCGGGAAAGGGGUCAACAGCCGUUCAGUACCAAGUCUCAGGGGAAACUUUGAGAUGGCCUUGCAAAGGGUAUGGUAAUAAGCUGACGGACAUGGUCCUAACCACGCAGCCAAGUCCUAAGUCAACAGAUCUUCUGUUGAUAUGGAUGCAGUUCACAGACUAAAUGUCGGUCGGGGAAGAUGUAUUCUUCUCAUAAGAUAUAGUCGGACCUCUCCUUAAUGGGAGCUAGCGGAUGAAGUGAUGCAACACUGGAGCCGCUGGGAACUAAUUUGUAUGCGAAAGUAUAUUGAUUAGUUUUGGAGUACUCGUGGUCG
Summary of the method: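 Colonies from six replicate transformations of E. coli BL21(DE3) were pooled and amplicon-sequenced on an Illumina HiSeq 2500. The library placed an intron with all eight P1ex-region nucleotides randomised inside the knt kanamycin-resistance gene on pET-22b(+), and cells grew overnight at 37°C or 30°C on LB agar with or without 25 μg/mL kanamycin (plus 100 μg/mL carbenicillin, 50 μM IPTG, 0.2% rhamnose). Fitness is the DiMSum error-weighted combination of wild-type-normalised replicate fold changes, kanamycin versus none.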

Row | Sequence | self-splicing fitness (ln) (30 °C) | self-splicing fitness (ln) (37 °C)
1 | AUAUAGCAAUAUUACGCAUG | -1.66 ± 0.12 | -0.477 ± 0.14
2 | AUAUAGCAAUAUUACGCCCA | -1.31 ± 0.3 | -0.688 ± 0.3
3 | AUAUAGCAAUAUUACGCCCG | -1.67 ± 0.21 | -1.56 ± 0.42
4 | AUAUAGCAAUAUUACGCGCC | -1.51 ± 0.33 | -1.35 ± 0.41
5 | AUAUAGCAAUAUUACGCUAG | -1.69 ± 0.25 | -1.19 ± 0.3
6 | AUAUAGCAAUAUUACGCUCC | -0.958 ± 0.25 | -0.476 ± 0.32
7 | AUAUAGCAAUAUUACGCUUC | -2.84 ± 0.38 | -2.86 ± 0.43
8 | AUAUAGCAAUAUUACGGAAG | -3.08 ± 0.36 | -1.27 ± 0.34
9 | AUAUAGCAAUAUUACGGCGC | -1.38 ± 0.19 | -0.869 ± 0.26
10 | AUAUAGCAAUAUUACGUGGC |  | -2.67 ± 0.31
11 | AUAUAGCAAUAUUACGUUAU | -3.02 ± 0.13 | -1.65 ± 0.12
12 | AUCAAGCAAUAUUACGAAAU | -2.09 ± 0.078 | -1.04 ± 0.092
13 | AUCAAGCAAUAUUACGAACA | -1.12 ± 0.08 | -0.578 ± 0.08
14 | AUCAAGCAAUAUUACGAAUC | -4.76 ± 0.41 | -2.78 ± 0.3
15 | AUCAAGCAAUAUUACGACCG | -1.33 ± 0.15 | -0.381 ± 0.18
16 | AUCAAGCAAUAUUACGACCU | -0.924 ± 0.11 | -0.336 ± 0.1
17 | AUCAAGCAAUAUUACGAUAC | -4.68 ± 0.39 | -2.17 ± 0.26
18 | AUCAAGCAAUAUUACGAUCC | -2.34 ± 0.2 | -0.539 ± 0.21
19 | AUCAAGCAAUAUUACGCAGG | -2.34 ± 0.2 | -1.8 ± 0.2
20 | AUCAAGCAAUAUUACGCCAG | -3.08 ± 0.2 | -1.32 ± 0.23
21 | AUCAAGCAAUAUUACGCCCC | -1.45 ± 0.3 | 0.787 ± 0.27
22 | AUCAAGCAAUAUUACGCGCC | -1.23 ± 0.14 | -0.474 ± 0.17
23 | AUCAAGCAAUAUUACGGAGC | -2.98 ± 0.28 | -1.92 ± 0.25
24 | AUCAAGCAAUAUUACGGCGC | -1.01 ± 0.093 | 0.428 ± 0.14
25 | AUCAAGCAAUAUUACGGGCC | -2.78 ± 0.2 | -0.86 ± 0.29
26 | AUCAAGCAAUAUUACGGUAA | -2.12 ± 0.12 | -0.319 ± 0.084

Row | Sequence | self-splicing fitness (ln) (30 °C) | self-splicing fitness (ln) (37 °C)
27 | AUCAAGCAAUAUUACGGUAG |  | -2.53 ± 0.39
28 | AUCAAGCAAUAUUACGGUCA | -1.76 ± 0.14 | -1.28 ± 0.13
29 | AUCAAGCAAUAUUACGUAUG | -4.19 ± 0.24 | -1.56 ± 0.14
30 | AUCAAGCAAUAUUACGUCUC | -2.08 ± 0.087 | -1.16 ± 0.11
31 | AUCAAGCAAUAUUACGUGCA | -0.986 ± 0.077 | -0.556 ± 0.088
32 | AUCAAGCAAUAUUACGUGCG | -1.03 ± 0.079 | 0.202 ± 0.099
33 | AUCAAGCAAUAUUACGUUAG | -3.1 ± 0.14 | -3.05 ± 0.2
34 | AUCCAGCAAUAUUACGAACA | -0.801 ± 0.087 | -0.748 ± 0.11
35 | AUCCAGCAAUAUUACGAACU | -1.98 ± 0.15 | -0.753 ± 0.18
36 | AUCCAGCAAUAUUACGACAU | 0.00336 ± 0.011 | 0.408 ± 0.032
37 | AUCCAGCAAUAUUACGAGAC | -2.51 ± 0.091 | -2.01 ± 0.11
38 | AUCCAGCAAUAUUACGAUCG | -2.6 ± 0.2 | -3.02 ± 0.37
39 | AUCCAGCAAUAUUACGCACU | -0.149 ± 0.11 | 0.144 ± 0.11
40 | AUCCAGCAAUAUUACGCAGA | -1.38 ± 0.11 | -0.448 ± 0.099
41 | AUCCAGCAAUAUUACGCCAC | -2.03 ± 0.18 | -2.5 ± 0.2
42 | AUCCAGCAAUAUUACGCCGA | -1.37 ± 0.1 | -0.75 ± 0.14
43 | AUCCAGCAAUAUUACGCGCU | -3.57 ± 0.22 | -2.37 ± 0.22
44 | AUCCAGCAAUAUUACGCGUU | -1.06 ± 0.087 | -0.503 ± 0.1
45 | AUCCAGCAAUAUUACGGCAC | -0.153 ± 0.085 | -0.31 ± 0.099
46 | AUCCAGCAAUAUUACGGGAU | -3.75 ± 0.28 | -2.9 ± 0.36
47 | AUCCAGCAAUAUUACGGGUG | -1.18 ± 0.049 | -0.904 ± 0.061
48 | AUCCAGCAAUAUUACGUAUG | -3.79 ± 0.2 | -2.05 ± 0.16
49 | AUCCAGCAAUAUUACGUCAA | -1.99 ± 0.1 | -1.54 ± 0.098
50 | AUCCAGCAAUAUUACGUCCA | -1.22 ± 0.11 | -0.412 ± 0.12
51 | AUCCAGCAAUAUUACGUGAA | -0.631 ± 0.049 | -0.212 ± 0.072
52 | AUCCAGCAAUAUUACGUUAA | -1.79 ± 0.11 | -1.1 ± 0.12

Row | Sequence | self-splicing fitness (ln) (30 °C) | self-splicing fitness (ln) (37 °C)
53 | AUCCAGCAAUAUUACGUUCU | -1.64 ± 0.096 | -1.39 ± 0.13
54 | AUCCAGCAAUAUUACGUUGU | -3.92 ± 0.12 | -2.09 ± 0.093
55 | AUCGAGCAAUAUUACGACGC | -1.28 ± 0.094 | -0.674 ± 0.12
56 | AUCGAGCAAUAUUACGAGCU | -2.36 ± 0.4 | 
57 | AUCGAGCAAUAUUACGAUCA |  | -0.193 ± 0.26
58 | AUCGAGCAAUAUUACGCCUA |  | -2.39 ± 0.32
59 | AUCGAGCAAUAUUACGCCUU | -1.74 ± 0.16 | -1.72 ± 0.21
60 | AUCGAGCAAUAUUACGCGAA | -1.68 ± 0.2 | -0.699 ± 0.2
61 | AUCGAGCAAUAUUACGCGAC | -1.15 ± 0.22 | -2.55 ± 0.4
62 | AUCGAGCAAUAUUACGCGAG | -2.32 ± 0.2 | -1.4 ± 0.14
63 | AUCGAGCAAUAUUACGCGAU | -2.06 ± 0.27 | 
64 | AUCGAGCAAUAUUACGCGCU | -2.97 ± 0.26 | -2.87 ± 0.36
65 | AUCGAGCAAUAUUACGCGGG | -2.23 ± 0.24 | -1.21 ± 0.29
66 | AUCGAGCAAUAUUACGCGUC | -2.85 ± 0.21 | -2.7 ± 0.43
67 | AUCGAGCAAUAUUACGCGUG | -2.55 ± 0.13 | -1.2 ± 0.14
68 | AUCGAGCAAUAUUACGCUUC |  | -3.02 ± 0.44
69 | AUCGAGCAAUAUUACGCUUG | -2.41 ± 0.18 | -1.1 ± 0.3
70 | AUCGAGCAAUAUUACGGAGG | -1.89 ± 0.39 | -0.942 ± 0.25
71 | AUCGAGCAAUAUUACGGAUC | -3.66 ± 0.41 | -1.38 ± 0.32
72 | AUCGAGCAAUAUUACGGAUU | -3.48 ± 0.22 | -1.26 ± 0.17
73 | AUCGAGCAAUAUUACGGUGA | -2.39 ± 0.12 | -2.25 ± 0.15
74 | AUCGAGCAAUAUUACGUAAA | -3.43 ± 0.3 | -1.53 ± 0.29
75 | AUCGAGCAAUAUUACGUACG |  | -2.07 ± 0.27
76 | AUCGAGCAAUAUUACGUACU | -1.09 ± 0.15 | -0.28 ± 0.17
77 | AUCGAGCAAUAUUACGUGAC | -3.54 ± 0.26 | -2.91 ± 0.29
78 | AUCGAGCAAUAUUACGUUGC | -2.95 ± 0.29 | -1.7 ± 0.27
